Results on four molecules are retold here after US20220347236A1 (GL INNOVATION, published 2022).

Experiment [1] has as its target T1, human IgE (human, UniProt P01854-1 1-428).
T1 construct: Bought human IgE; also called human IgE (Calbiochem)
Nature of the experiment: SPR kinetics on IgE (Table 3), omalizumab as reference; paragraph 125 ties the 69-fold end to FcεRIαECD-Fc2ST. As for the experimental part:
(§1) The experiments were conducted by identifying zero base using 25 mM NaOH as a regeneration buffer, and then repeating the above steps. Thereafter, a binding curve was identified using a protein binding analyzer (ProteOn XPR36, Bio-Rad Laboratories, Inc., USA).
A general note: In SPR one partner is held on a chip, and binding of the other changes the refractive index at the surface.

For experiment [2], the target named is T1, human IgE. Nature of the experiment: SPR (ProteOn XPR36), ratio of kd to that of omalizumab. The procedure: as §1
The target in experiment [3] is T1, human IgE. The experiment in a line: SPR (ProteOn XPR36), human IgE.
Experiment [4] has as its target T1, human IgE. Nature of the experiment: SPR (ProteOn XPR36), ratio of KD of omalizumab to KD of IgETRAP. The procedure:
as §1

In experiment [5] the target is T1, human IgE. Nature of the experiment: SPR (ProteOn XPR36), ratio of KD to that of omalizumab. As for the experimental part: as §1
Experiment [6] concerns the target T2, mouse IgE (anti-dinitrophenyl IgE) (mouse, UniProt P06336 1-421). Nature of the experiment: cell-based or functional assay.
Experiment [7] deals with T1, human IgE. The experiment in a line: SPR (ProteOn XPR36, GLC chip), IgE coated, protein flowed; KD = kd/ka. As for the experimental part: as §1
Experiment [8] deals with T1, human IgE. The experiment in a line: SPR (ProteOn XPR36), ratio of ka to that of omalizumab. The procedure:
as §1

Experiment [9] addresses T1, human IgE. The experiment in a line: SPR kinetics on IgE (Table 3), omalizumab as reference; paragraph 125 ties the 1.5-fold end to FceR1αECD-Fc2ST. As for the experimental part:
as §1

Experiment [10] deals with T1, human IgE. The experiment in a line: SPR (ProteOn XPR36, GLC chip), IgE coated, protein flowed at various concentrations. As for the experimental part: as §1
Experiment [11] deals with T1, human IgE. The experiment in a line: cell-based or functional assay.
In experiment [12] the target is T2, mouse IgE (anti-dinitrophenyl IgE). The experiment in a line: cell-based or functional assay. The source holds these as a separate data set.

T1 sequence (P01854 other isoform, or with tags, fused parts or gaps): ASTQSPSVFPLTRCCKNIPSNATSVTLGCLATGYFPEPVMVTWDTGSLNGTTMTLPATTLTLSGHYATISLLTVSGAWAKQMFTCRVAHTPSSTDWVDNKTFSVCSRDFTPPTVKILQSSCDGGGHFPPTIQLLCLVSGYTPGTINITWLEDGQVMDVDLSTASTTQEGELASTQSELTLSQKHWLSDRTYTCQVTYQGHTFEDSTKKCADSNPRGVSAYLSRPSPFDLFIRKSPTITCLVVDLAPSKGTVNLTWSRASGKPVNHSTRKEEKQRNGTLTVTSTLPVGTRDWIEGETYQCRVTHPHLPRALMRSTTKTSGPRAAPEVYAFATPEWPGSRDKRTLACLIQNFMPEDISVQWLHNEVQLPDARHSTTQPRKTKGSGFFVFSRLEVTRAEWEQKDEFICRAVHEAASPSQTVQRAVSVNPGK
T2 sequence (P06336 whole entry): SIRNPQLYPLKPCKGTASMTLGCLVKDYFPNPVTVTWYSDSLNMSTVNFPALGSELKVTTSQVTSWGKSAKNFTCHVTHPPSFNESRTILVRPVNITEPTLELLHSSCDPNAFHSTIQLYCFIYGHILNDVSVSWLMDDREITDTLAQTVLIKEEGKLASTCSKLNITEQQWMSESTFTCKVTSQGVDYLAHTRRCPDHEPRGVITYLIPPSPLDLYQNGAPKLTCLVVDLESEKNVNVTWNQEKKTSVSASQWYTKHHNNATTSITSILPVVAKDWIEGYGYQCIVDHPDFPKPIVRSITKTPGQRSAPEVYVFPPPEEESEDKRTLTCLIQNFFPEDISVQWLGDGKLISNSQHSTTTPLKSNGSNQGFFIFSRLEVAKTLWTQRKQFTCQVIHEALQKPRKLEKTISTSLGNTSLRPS

B1: FcεRIαECD-Fc2ST (Fc fusion)
chain: VPQKPKVSLNPPWNRIFKGENVTLTCNGNNFFEVSSTKWFHNGSLSEETNSSLNIVNAKFEDSGEYKCQHQQVNESEPVYLEVFSDWLLLQASAEVVMEGQPLFLRCHGWRNWDVYKVIYYKDGEALKYWYENHNISITNATVEDSGTYYCTGKVWQLDYESEPLNITVIKAPREKYWLQRNTGRGGEEKKGSKEKEEQEERETKTPECPSHTQPLGVFLFPPKPKDTLMISRTPEVTCVVVDVSQEDPEVQFNWYVDGVEVHNAKTKPREEQFNSTYRVVSVLTVLHQDWLNGKEYKCKVSNKGLPSSIEKTISKAKGQPREPQVYTLPPSQEEMTKNQVSLTCLVKGFYPSDIAVEWESNGQPENNYKTTPPVLDSDGSFFLYSRLTVDKSRWQEGNVFSCSVMHEALHNHYTQKSLSLSLGK
modifications: sialic acid added (α-2,6-sialic acid transferase co-expressed)
notes: Homodimer; also called IgETRAP; FceR1αECD-Fc2ST
Broadly, the Kd is the equilibrium constant for the complex coming apart. Low values mean a tighter complex, high ones a looser complex. Usually koff stands for a measure of how fast the partners let go of each other. A higher koff goes with fast dissociation. The kon is a measure of how fast the partners come together. A high value points to faster complex formation. Regarding B1, in the experiment with human IgE [1], the “fold change of equilibrium dissociation constant (KD) against omalizumab (printed 'higher'; meant as stronger binding)” value lay within 22 to 69 fold. In addition, in the experiment with human IgE [2], the “fold of dissociation rate (Kd) against omalizumab” value is around 94.5 fold and the “fold of kd against omalizumab” value amounted to 106 fold. Also, in the experiment with human IgE [3], the Kd turned out to be 0.215 nM, the koff came out at 5.69e-05 s⁻¹ and the on-rate (kon) worked out at 264000 M⁻¹ s⁻¹. Further, the “Comparison of KD [Omalizumab/IgETRAP]” value with human IgE [4] is around 69 fold. Also, in the experiment with human IgE [5], the “fold of KD against omalizumab” value amounted to 69 fold. For the same molecule, in experiment [6], the “Average inhibition ratio (%) of mast cell degranulation at IgETRAP 0.016 ug/mL (0.11 nM; IgE/IgETRAP molar ratio 47.8), anti-DNP IgE 1 ug/mL” value came out at 2.12%; the “Average inhibition ratio (%) of mast cell degranulation at IgETRAP 0.063 ug/mL (0.42 nM; IgE/IgETRAP molar ratio 12.5), anti-DNP IgE 1 ug/mL” value amounted to 12.4%; the “Average inhibition ratio (%) of mast cell degranulation at IgETRAP 0.25 ug/mL (1.67 nM; IgE/IgETRAP molar ratio 3.15), anti-DNP IgE 1 ug/mL” value came to 13.8%; the “Average inhibition ratio (%) of mast cell degranulation at IgETRAP 0.5 ug/mL (3.33 nM; IgE/IgETRAP molar ratio 1.58), anti-DNP IgE 1 ug/mL” value was found to be 49.4%. Further, in [6], the “Average inhibition ratio (%) of mast cell degranulation at IgETRAP 1 ug/mL (6.67 nM; IgE/IgETRAP molar ratio 0.79), anti-DNP IgE 1 ug/mL” value worked out at 99.3%; the “Average inhibition ratio (%) of mast cell degranulation at IgETRAP 2 ug/mL (13.3 nM; IgE/IgETRAP molar ratio 0.40), anti-DNP IgE 1 ug/mL” value is 99.4%; the “Average inhibition ratio (%) of mast cell degranulation at IgETRAP 4 ug/mL (26.7 nM; IgE/IgETRAP molar ratio 0.20), anti-DNP IgE 1 ug/mL” value was determined as 99.8%. The Kd with human IgE [7] stood at 0.216 nM. For the same molecule, in the experiment with human IgE [8], the “fold of ka against omalizumab” value stood at 1.5 fold. The “fold lower association rate (ka) than omalizumab” value in the experiment with human IgE [9] was 1.5 to 2 fold. In the experiment with human IgE [10], this molecule registered a koff of 5.69e-05 s⁻¹ and a kon of 264000 M⁻¹ s⁻¹. Also, in the experiment with human IgE [11], the “IC50 of mast cell inhibition (β-hexosaminidase release, human FcεRI-expressing mouse bone marrow-derived mast cells, human IgE 1 ug/mL)” value was around 0.0112 µg/mL and the “fold higher inhibitory ability on mast cell activity than Xolair” value was 58 fold. Besides, in [12], the “IC50 of inhibition of degranulation of mouse bone marrow-derived mast cells (β-hexosaminidase release) in the presence of 1 µg/ml mouse IgE” value was found to be 0.45 µg/mL.

B2: FcεRIαECD-Fc2 (Fc fusion)
chain: B1 chain
notes: also called FcεRIα ECD fusion protein; polypeptide dimer
Consider B2, for which the “fold of kd against omalizumab” value with human IgE [2] turned out to be 73 fold. The “fold of KD against omalizumab” value in the experiment with human IgE [5] stood at 38 fold. This molecule also gave a Kd with human IgE [7] of 0.388 nM. Moreover, the “fold of ka against omalizumab” value with human IgE [8] was determined as 1.9 fold. Besides, in the experiment with human IgE [10], the koff worked out at 8.29e-05 s⁻¹ and the on-rate (kon) is 214000 M⁻¹ s⁻¹.

B3: FcεRIαECD-Fc3 (Fc fusion)
chain: VPQKPKVSLNPPWNRIFKGENVTLTCNGNNFFEVSSTKWFHNGSLSEETNSSLNIVNAKFEDSGEYKCQHQQVNESEPVYLEVFSDWLLLQASAEVVMEGQPLFLRCHGWRNWDVYKVIYYKDGEALKYWYENHNISITNATVEDSGTYYCTGKVWQLDYESEPLNITVIKAPREKYWLQAQPQAEGSLAKATTAPATTRNTGRGGEEKKGSKEKEEQEERETKTPECPSHTQPLGVFLFPPKPKDTLMISRTPEVTCVVVDVSQEDPEVQFNWYVDGVEVHNAKTKPREEQFNSTYRVVSVLTVLHQDWLNGKEYKCKVSNKGLPSSIEKTISKAKGQPREPQVYTLPPSQEEMTKNQVSLTCLVKGFYPSDIAVEWESNGQPENNYKTTPPVLDSDGSFFLYSRLTVDKSRWQEGNVFSCSVMHEALHNHYTQKSLSLSLGK
On to B3, for which the “fold of kd against omalizumab” value in the experiment with human IgE [2] stood at 45 fold. In the experiment with human IgE [5], the “fold of KD against omalizumab” value is 22 fold. Binding with human IgE [7] was characterised by a dissociation constant (Kd) of 0.672 nM. In addition, the “fold of ka against omalizumab” value in the experiment with human IgE [8] is 2 fold. In the experiment with human IgE [10], the koff is 0.000133 s⁻¹ and the kon turned out to be 198000 M⁻¹ s⁻¹.

B4: FcεRIαECD-Fc3ST (Fc fusion)
chain: B3 chain
modifications: sialic acid added (α-2,6-sialic acid transferase co-expressed)
notes: Dimer; also called FcεRIαECD-Fc3 + a2,6-ST
B4: the “fold of kd against omalizumab” value in the experiment with human IgE [2] came to 40 fold. In the experiment with human IgE [5], the “fold of KD against omalizumab” value came to 24 fold. In the experiment with human IgE [7], this molecule came in with a Kd of 0.621 nM. Moreover, in the experiment with human IgE [8], the “fold of ka against omalizumab” value amounted to 1.7 fold. Also, in the experiment with human IgE [10], the off-rate constant (koff) worked out at 0.000149 s⁻¹ and the kon was found to be 240000 M⁻¹ s⁻¹.
